# Laboratory results taken from US20250361268A1, “NOVEL ANTI-INFLAMMATORY PEPTIDE AND USE THEREOF” (NOVACELL TECHNOLOGY INC., priority 2022, published 2025).
# T1: FPR1 (UniProt P21462 1-350, limits assumed)
# T1 sequence (looked up): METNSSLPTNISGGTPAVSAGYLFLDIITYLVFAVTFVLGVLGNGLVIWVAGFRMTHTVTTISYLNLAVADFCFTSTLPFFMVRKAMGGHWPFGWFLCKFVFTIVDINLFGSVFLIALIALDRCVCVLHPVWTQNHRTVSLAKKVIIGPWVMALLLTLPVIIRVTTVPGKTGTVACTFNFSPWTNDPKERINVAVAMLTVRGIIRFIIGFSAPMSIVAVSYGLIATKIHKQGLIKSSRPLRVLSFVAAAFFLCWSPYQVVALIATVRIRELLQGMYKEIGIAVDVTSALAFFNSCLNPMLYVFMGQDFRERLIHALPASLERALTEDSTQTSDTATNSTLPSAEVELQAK
# T2: formyl peptide receptor 2 (FPR2) (UniProt P25090 1-351, limits assumed)
# T2 sequence (looked up): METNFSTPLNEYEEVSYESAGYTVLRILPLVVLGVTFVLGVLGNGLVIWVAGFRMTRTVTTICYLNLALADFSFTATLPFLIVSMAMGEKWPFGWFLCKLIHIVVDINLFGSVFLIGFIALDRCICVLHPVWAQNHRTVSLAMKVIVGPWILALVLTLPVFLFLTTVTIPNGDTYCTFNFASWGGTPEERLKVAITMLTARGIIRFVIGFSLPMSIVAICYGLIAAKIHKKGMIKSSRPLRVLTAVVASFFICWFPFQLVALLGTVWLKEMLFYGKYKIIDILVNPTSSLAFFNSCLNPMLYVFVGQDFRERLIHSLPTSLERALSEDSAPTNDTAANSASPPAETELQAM
# B1: peptide of SEQ ID NO 3 (peptide)
# peptide: WRYKVM
# HELM: PEPTIDE1{W.R.Y.K.V.[dM].[am]}$$$$V2.0; N-terminus assumed
# SMILES: CSCC[C@@H](NC(=O)[C@@H](NC(=O)[C@H](CCCCN)NC(=O)[C@H](Cc1ccc(O)cc1)NC(=O)[C@H](CCCNC(=N)N)NC(=O)[C@@H](N)Cc1c[nH]c2ccccc12)C(C)C)C(N)=O
# B2: peptide of SEQ ID NO 21 (peptide)
# peptide: HMKYKVM
# HELM: PEPTIDE1{H.M.K.Y.K.V.[dM].[am]}$$$$V2.0; N-terminus assumed
# SMILES: CSCC[C@H](NC(=O)[C@@H](N)Cc1c[nH]cn1)C(=O)N[C@@H](CCCCN)C(=O)N[C@@H](Cc1ccc(O)cc1)C(=O)N[C@@H](CCCCN)C(=O)N[C@H](C(=O)N[C@H](CCSC)C(N)=O)C(C)C
# B3: peptide of SEQ ID NO 27 (peptide)
# peptide: PMKYKVM
# HELM: PEPTIDE1{[CCCC(=O)[*:2]].P.M.K.Y.K.V.[dM].[am]}$$$$V2.0
# SMILES: CCCC(=O)N1CCC[C@H]1C(=O)N[C@@H](CCSC)C(=O)N[C@@H](CCCCN)C(=O)N[C@@H](Cc1ccc(O)cc1)C(=O)N[C@@H](CCCCN)C(=O)N[C@H](C(=O)N[C@H](CCSC)C(N)=O)C(C)C
# B4: peptide of SEQ ID NO 23 (peptide)
# peptide: HMKYKVM
# HELM: PEPTIDE1{[CCCC(=O)[*:2]].H.M.K.Y.K.V.[dM].[am]}$$$$V2.0
# SMILES: CCCC(=O)N[C@@H](Cc1c[nH]cn1)C(=O)N[C@@H](CCSC)C(=O)N[C@@H](CCCCN)C(=O)N[C@@H](Cc1ccc(O)cc1)C(=O)N[C@@H](CCCCN)C(=O)N[C@H](C(=O)N[C@H](CCSC)C(N)=O)C(C)C
# B5: peptide of SEQ ID NO 30 (peptide)
# peptide: RMRYRVM
# HELM: PEPTIDE1{R.M.R.Y.R.V.[dM].[am]}$$$$V2.0; N-terminus assumed
# SMILES: CSCC[C@H](NC(=O)[C@@H](N)CCCNC(=N)N)C(=O)N[C@@H](CCCNC(=N)N)C(=O)N[C@@H](Cc1ccc(O)cc1)C(=O)N[C@@H](CCCNC(=N)N)C(=O)N[C@H](C(=O)N[C@H](CCSC)C(N)=O)C(C)C
# B6: peptide of SEQ ID NO 149 (peptide)
# peptide: HKYKPM
# HELM: PEPTIDE1{[CCCCCCCC(=O)[*:2]].H.K.Y.K.P.[dM].[am]}$$$$V2.0
# SMILES: CCCCCCCC(=O)N[C@@H](Cc1c[nH]cn1)C(=O)N[C@@H](CCCCN)C(=O)N[C@@H](Cc1ccc(O)cc1)C(=O)N[C@@H](CCCCN)C(=O)N1CCC[C@H]1C(=O)N[C@H](CCSC)C(N)=O
# B7: peptide of SEQ ID NO 29 (peptide)
# peptide: RWRYRVM
# HELM: PEPTIDE1{R.W.R.Y.R.V.[dM].[am]}$$$$V2.0; N-terminus assumed
# SMILES: CSCC[C@@H](NC(=O)[C@@H](NC(=O)[C@H](CCCNC(=N)N)NC(=O)[C@H](Cc1ccc(O)cc1)NC(=O)[C@H](CCCNC(=N)N)NC(=O)[C@H](Cc1c[nH]c2ccccc12)NC(=O)[C@@H](N)CCCNC(=N)N)C(C)C)C(N)=O
# B8: peptide of SEQ ID NO 24 (peptide)
# peptide: HMKYKVM
# HELM: PEPTIDE1{[CCCCCCCC(=O)[*:2]].H.M.K.Y.K.V.[dM].[am]}$$$$V2.0
# SMILES: CCCCCCCC(=O)N[C@@H](Cc1c[nH]cn1)C(=O)N[C@@H](CCSC)C(=O)N[C@@H](CCCCN)C(=O)N[C@@H](Cc1ccc(O)cc1)C(=O)N[C@@H](CCCCN)C(=O)N[C@H](C(=O)N[C@H](CCSC)C(N)=O)C(C)C
# B9: peptide of SEQ ID NO 17 (peptide)
# peptide: MKYKVM
# HELM: PEPTIDE1{M.K.Y.K.V.[dM].[am]}$$$$V2.0; N-terminus assumed
# SMILES: CSCC[C@H](N)C(=O)N[C@@H](CCCCN)C(=O)N[C@@H](Cc1ccc(O)cc1)C(=O)N[C@@H](CCCCN)C(=O)N[C@H](C(=O)N[C@H](CCSC)C(N)=O)C(C)C
# B10: peptide of SEQ ID NO 28 (peptide)
# peptide: PMKYKVM
# HELM: PEPTIDE1{[CCCCCCCC(=O)[*:2]].P.M.K.Y.K.V.[dM].[am]}$$$$V2.0
# SMILES: CCCCCCCC(=O)N1CCC[C@H]1C(=O)N[C@@H](CCSC)C(=O)N[C@@H](CCCCN)C(=O)N[C@@H](Cc1ccc(O)cc1)C(=O)N[C@@H](CCCCN)C(=O)N[C@H](C(=O)N[C@H](CCSC)C(N)=O)C(C)C
# B11: peptide of SEQ ID NO 154 (peptide)
# peptide: RWRYLYM
# HELM: PEPTIDE1{R.W.R.Y.L.Y.[dM].[am]}$$$$V2.0; N-terminus assumed
# SMILES: CSCC[C@@H](NC(=O)[C@H](Cc1ccc(O)cc1)NC(=O)[C@H](CC(C)C)NC(=O)[C@H](Cc1ccc(O)cc1)NC(=O)[C@H](CCCNC(=N)N)NC(=O)[C@H](Cc1c[nH]c2ccccc12)NC(=O)[C@@H](N)CCCNC(=N)N)C(N)=O
# B12: peptide of SEQ ID NO 22 (peptide)
# peptide: HMKYKVM
# HELM: PEPTIDE1{[ac].H.M.K.Y.K.V.[dM].[am]}$$$$V2.0
# SMILES: CSCC[C@H](NC(=O)[C@H](Cc1c[nH]cn1)NC(C)=O)C(=O)N[C@@H](CCCCN)C(=O)N[C@@H](Cc1ccc(O)cc1)C(=O)N[C@@H](CCCCN)C(=O)N[C@H](C(=O)N[C@H](CCSC)C(N)=O)C(C)C
# B13: peptide of SEQ ID NO 33 (peptide)
# peptide: RWRYKYM
# HELM: PEPTIDE1{[ac].R.W.R.Y.K.Y.[dM].[am]}$$$$V2.0
# SMILES: CSCC[C@@H](NC(=O)[C@H](Cc1ccc(O)cc1)NC(=O)[C@H](CCCCN)NC(=O)[C@H](Cc1ccc(O)cc1)NC(=O)[C@H](CCCNC(=N)N)NC(=O)[C@H](Cc1c[nH]c2ccccc12)NC(=O)[C@H](CCCNC(=N)N)NC(C)=O)C(N)=O
# B14: peptide of SEQ ID NO 19 (peptide)
# peptide: MKYKVM
# HELM: PEPTIDE1{[CCCC(=O)[*:2]].M.K.Y.K.V.[dM].[am]}$$$$V2.0
# SMILES: CCCC(=O)N[C@@H](CCSC)C(=O)N[C@@H](CCCCN)C(=O)N[C@@H](Cc1ccc(O)cc1)C(=O)N[C@@H](CCCCN)C(=O)N[C@H](C(=O)N[C@H](CCSC)C(N)=O)C(C)C
# B15: peptide of SEQ ID NO 156 (peptide)
# peptide: RWRYFYM
# HELM: PEPTIDE1{R.W.R.Y.F.Y.[dM].[am]}$$$$V2.0; N-terminus assumed
# SMILES: CSCC[C@@H](NC(=O)[C@H](Cc1ccc(O)cc1)NC(=O)[C@H](Cc1ccccc1)NC(=O)[C@H](Cc1ccc(O)cc1)NC(=O)[C@H](CCCNC(=N)N)NC(=O)[C@H](Cc1c[nH]c2ccccc12)NC(=O)[C@@H](N)CCCNC(=N)N)C(N)=O
# B16: peptide of SEQ ID NO 26 (peptide)
# peptide: PMKYKVM
# HELM: PEPTIDE1{[ac].P.M.K.Y.K.V.[dM].[am]}$$$$V2.0
# SMILES: CSCC[C@H](NC(=O)[C@@H]1CCCN1C(C)=O)C(=O)N[C@@H](CCCCN)C(=O)N[C@@H](Cc1ccc(O)cc1)C(=O)N[C@@H](CCCCN)C(=O)N[C@H](C(=O)N[C@H](CCSC)C(N)=O)C(C)C
# B17: peptide of SEQ ID NO 25 (peptide)
# peptide: PMKYKVM
# HELM: PEPTIDE1{P.M.K.Y.K.V.[dM].[am]}$$$$V2.0; N-terminus assumed
# SMILES: CSCC[C@H](NC(=O)[C@@H]1CCCN1)C(=O)N[C@@H](CCCCN)C(=O)N[C@@H](Cc1ccc(O)cc1)C(=O)N[C@@H](CCCCN)C(=O)N[C@H](C(=O)N[C@H](CCSC)C(N)=O)C(C)C
# B18: peptide of SEQ ID NO 18 (peptide)
# peptide: MKYKVM
# HELM: PEPTIDE1{[ac].M.K.Y.K.V.[dM].[am]}$$$$V2.0
# SMILES: CSCC[C@H](NC(C)=O)C(=O)N[C@@H](CCCCN)C(=O)N[C@@H](Cc1ccc(O)cc1)C(=O)N[C@@H](CCCCN)C(=O)N[C@H](C(=O)N[C@H](CCSC)C(N)=O)C(C)C
# B19: peptide of SEQ ID NO 157 (peptide)
# peptide: RWRYTYM
# HELM: PEPTIDE1{R.W.R.Y.T.Y.[dM].[am]}$$$$V2.0; N-terminus assumed
# SMILES: CSCC[C@@H](NC(=O)[C@H](Cc1ccc(O)cc1)NC(=O)[C@@H](NC(=O)[C@H](Cc1ccc(O)cc1)NC(=O)[C@H](CCCNC(=N)N)NC(=O)[C@H](Cc1c[nH]c2ccccc12)NC(=O)[C@@H](N)CCCNC(=N)N)[C@@H](C)O)C(N)=O
# Target: T1, FPR1
# Assay: cell-based or functional assay
row,EC50 for [Ca2+],Binder
1,> 10 µM,B1
2,> 10 µM,B2
3,> 10 µM,B3
4,> 10 µM,B4
5,> 10 µM,B5
6,> 10 µM,B6
7,> 10 µM,B7
8,> 10 µM,B8
9,> 10 µM,B9
10,> 10 µM,B10
11,> 10 µM,B11
12,> 10 µM,B12
13,> 10 µM,B13
14,> 10 µM,B14
15,> 10 µM,B15
16,> 10 µM,B16
17,> 10 µM,B17
18,> 10 µM,B18
19,> 10 µM,B19

# Target: T2, formyl peptide receptor 2 (FPR2)
# Assay: cell-based or functional assay
row,EC50 for [Ca2+],Binder
1,< 0.01 µM,B1
2,< 0.01 µM,B2
3,< 0.01 µM,B3
4,< 0.01 µM,B4
5,< 0.01 µM,B5
6,< 0.01 µM,B6
7,< 0.01 µM,B7
8,< 0.01 µM,B8
9,< 0.01 µM,B9
10,< 0.01 µM,B10
11,< 0.01 µM,B11
12,< 0.01 µM,B12
13,< 0.01 µM,B13
14,< 0.01 µM,B14
15,< 0.01 µM,B15
16,< 0.01 µM,B16
17,< 0.01 µM,B17
18,< 0.01 µM,B18
19,< 0.01 µM,B19
